According to article PMC9230395:

Target: T1, ZBP1 (recombinant Z-DNA-binding protein) (UniProt Q9H171)
T1 sequence: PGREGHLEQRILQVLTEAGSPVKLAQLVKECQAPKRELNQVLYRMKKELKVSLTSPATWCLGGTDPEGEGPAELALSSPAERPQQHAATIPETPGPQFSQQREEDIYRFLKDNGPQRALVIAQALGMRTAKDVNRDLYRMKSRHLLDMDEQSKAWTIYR
Assay: BLI
Details: 10 mM MgCl2; kon 8.28e3 M-1 s-1, koff 4.68e-6 s-1; strands 1 and 2 circular; BLI: 1x PBS (10 mM phosphate) pH 7.2, 10 mM MgCl2, 0.1% BSA, 0.02% Tween-20, 25 C; EMSA: 10 mM phosphate pH 7.2, 10 mM MgCl2, 0.25 uM DNA, 6% PAGE (cc-91A) …

Sequence: CGTGTGATATAGGTGAACGCGCGTGTGTGTATATGTGTGCGATCGTAGAACTTGTGAACCCTTATACCATGCACGATCGCACATTTCGCACA / GCACACATATACACACACGCGCGTTCACCTATATCACACGTGACTTGTAATTAGTAACTACCAACGTGCGTGTGTGTCAGTCAGCGAAATGTGCGATCGTGCATGGTATAAGGGTTCACAAGTTCTACGATC / TTTTTACCTCACTATACTTACATGTTTTTTGGTAGTTACTAATTACAAGT [Bait-cc-91A (cc-91A + lB50)]
- Kd: 0.566 nM
